According to the supplement of paper PMC9170038:

Tested on: MS2 coat protein
Test: apparent KD of MS2 coat protein; higher = weaker reporter binding
Conditions: Eterna round: R107
Method in brief: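 Binding of SNAP-549-labelled MS2 coat protein was measured on designed RNA switches transcribed on-chip from Illumina sequencing clusters. The protein rose in twofold steps from 0.7 or 1.5 nM to 3 µM, with 0.8–1.5 h per step early on and 10–20 min per step later, in 100 mM Tris-HCl pH 7.5, 80 mM KCl, 4 mM MgCl2, without or with constant ligand. Each design's apparent KD is the median of fits to its normalised cluster binding curves.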

[1] = input ligand: theophylline 20 uM
[2] = input ligand: theophylline 2 mM
[3] = input ligand: tryptophan 2.4 mM

Sequence	apparent KD of MS2 coat protein (input ligand: arginine 13.2 mM) [nM]	apparent KD of MS2 coat protein (input ligand: none) [nM]	apparent KD of MS2 coat protein [1] [nM]	apparent KD of MS2 coat protein [2] [nM]	apparent KD of MS2 coat protein [3] [nM]
AGUCUUAUAGGAAGGAGCGCAUACUUCACAUGAGGAUCACCCAUGUCAAGGAGUGAGUCAAUGCAGGUAGGUCGCCUAACUAAGA [Same State - Arginine B (Freestyle 10)]	38.6	108	112	139	88.3
ACAUGAGGAUCACCCAUGUAAGUUUCAGAAGGAGCGUGAAUUAUCACAGGUAGGUCGCUGAAGUUUGCAUAUACUUAUAAAUGUA [JR_ExcArginiA_Sub006]	21	22.5	26.6	26.5	19.8
ACAUGAAGAACAGCGGUGGGCGCGCUCGAUACCAGUACUUUGAUAUACCCUUGGCAGCGACAUGAGGAUCACCCAUGUGAGAUGA [XTheo A #2]	16	–	23.9	–	18.1
CACGAUUUGUCGGCCGCCACUAAGGUAACUCUUCUCACAUGAGGAUCACCCAUGUGCCCGAAGCUUAGGACCGGGAUAAUGGGUG [Dieson]	32.3	–	150	288	–
UCCUACACGGAGACGUGUAGGAGUAAUGAUACCAGCAUGGAGACAUGCCCUUGGCAGCGUUACAUGAGGAUCACCCAUGUGGUGC [ETHA #7]	14.7	16.3	26.2	270	17.7
GGCCAUGGAAACAUGGCGGCGGCAUAAGCGCGAGGACCGGUACGGCCGCCACUCGGGCGACAUGAGGAUCACCCAUGUUCCUCAU [ETA NP+V+V2 #23 Same Structure]	105	–	413	529	–
ACAUUUAACUGAAGGAGCGUGAUAUUUACAUGAGGAUCACCCAUGUCUUUCAUGAAUAAUUCACAGGUAGGUCGCAGACUAAUGA [JR_ExcArginiB_Sub007]	96.8	116	159	158	129
CGGAGUAUGACGGCCGCCACUUGCCGGGCGCAGCUGGCUGCUUGACAUGAGGAUCACCCAUGUCCAAGGACCGGGUCAUUCCUCG [theeternabot_sameState_MS2_Trp_B_37]	59.4	–	145	189	–
AGUACUCGAACGGAUACCAGCCGGACAUGAGGAUCACCCAUGUCCUACCAAUGUUCGGUUGGCCCUUGGCAGCCGUUCGUGUACA [Omei Theo B SS A v5]	99.5	–	404	–	599
UGGUACAUGAGGAUCACCCAUGUGCCGGAUACCAGAGAGCCGGCUCUCCCUUGGCAGCUGGCGCGACAUGAGGAUCACCCAUGUG [Exclusion Theophylline A GF18]	18.1	–	32.2	–	24.6
GCUACAUGAGGAUCACCCAUGUAUGCGAGCCGAGGACCGGUACGGCCGCCACUCGCUUAACAUGAGGAUCACCCAUGUUGCUCGG [SSTA DOUBLE!!! :-D #17]	38.9	–	77.8	55.1	–
UCGCUCUGGGUGAAUCCCGGAGAUGUGGAAGGAGCGGACGAAAGUCCAGGUAGGUCGCCAUCGAACAUGAGGAUCACCCAUGUAC [Same State - Arginine A (Freestyle 25)]	13.3	88.8	338	60.5	21.8
UUUUUCGCGGGCGAUACCAGCUUGAUCGUACUGGCCUGGUACAUGAGGAUCACCCAUGUAAGCCCUUGGCAGCGCGCGCGAGAAG [#1 Exclusion - Theophylline B Attempt #2 (HarryS)]	10.8	11.5	17.7	30.4	12
AUGGUCGACGAUCUGCGAAAAGCAGAUCGACGAGGACCGGUACGGCCGCCACUCGUGUUUAUUUAACAUGAGGAUCACCCAUGUA [#14Tryptophan A Same State]	70.6	–	123	142	–
CGCACAUGAGGAUCACCCAUGUGAGGGUACCGAGGACCGGUACGGCCGCCACUCGCAGGACAUGAGGAUCACCCAUGUGCCGCCG [SSTA DOUBLE!!! :-D #6]	24.3	38.3	41.9	44.5	31
ACGGUUGGUUCGUUACCUCAUAUCUCAGAAGGAGCGGGCAGUAGUCCAGGUAGGUCGCUGGGACAUGAGGAUCACCCAUGUCUUA [Aataer]	22.4	103	139	211	166
CGAAUACUGAGUGAUACCAGUGAAAGAUAACUGUAUACACAUGAGGAUCACCCAUGUACACACCCUUGGCAGCACACUAGAUCGA [Same State Theophylline B GF 2]	25.8	–	40	–	29.9
GGUGGUGGGACGGAUACCAGCCACCGCGGCAACGCAACAUGAGGAUCACCCAUGUUGGGUGGCCCUUGGCAGCUGUCCUGCGGCG [#1 Same State - Theophylline B Attempt #25 (HarryS)]	12.6	–	18.5	–	12.7
CUAUAAGUAGCGGCCGCCACUUACUCAUGAGGUAACAACAUGAGGAUCACCCAUGUUUGAGGAUCAAGGACCGGGCUAUUUAUAG [AstrosSSTryB#9]	24.7	28.7	32.6	31.5	17.6
AGACAUGAGGAUCACCCAUGUAGCAUGGAUACCAGAUGUAGAUUUGUCCCUUGGCAGCUGUGGUAAAGUGAUGCAUUGCUCCUAG [Exclusion - Theophylline A (Freestyle 4)]	34.4	–	61.5	–	33.3
CUACAUUUGUAGAAACCGGUCACCGUUACUCGAGGACCGGUACGGCCGCCACUCGUGUCACGUGAUACAUGAGGAUCACCCAUGU [Tryptophan A 11]	28.9	–	45.7	54.8	–
AGUCUUAUAGGAAGGAGCGCAUACUUCACAUGAGGAUCACCCAUGUCAAGACGUGAGUCAAUGCAGGUAGGUCGCCUAACUAAGA [Same State - Arginine B (Freestyle 12)]	18	18.8	20.4	17.7	14.6
AAUUGGGUUGGUGAGGUGGUUGGAGGCGAUACCAGCGUGGAAACACGCCCUUGGCAGCGCCAGGACAUGAGGAUCACCCAUGUUA [Brno]	48.9	131	160	448	175
AGCGUUCAGCUUAUACUGGACAAUGGGUGACGAGGACCGGUACGGCCGCCACUCGGGCGCCCGGUUACAUGAGGAUCACCCAUGU [Vedizaus]	52.2	195	213	212	20.5
CCUAUGCAGUCGGCCGCCACUGAACAUGAGGAUCACCCAUGUAUAUAAAGAUCCUGAUAUAAUAACAGGACCGGGACUGUAUAGG [Ex Tryptophan B 10]	39.2	–	73.4	58.1	–
AAACAUUGCUCAGAUACCAGACAUGAGGAUCACCCAUGUACCAAGGUACCCGAAAGGAAUGUCCCUUGGCAGCUGAGCAAUGAAA [MAT - Exclusion Theophlline B - Mod of Eli - D20]	10.9	–	11.9	–	9.51
AAUUUUCACGGAAGGAGCGUCACGUAAUUCAUACAUGAGGAUCACCCAUGUUAGUGGUAGAGACAGGUAGGUCGCCGUUAUUUGA [JR_AAArginiB_Sub026]	14.3	16.8	35.3	20.3	21.4
UGUAUGUGAUUUGAUACCAGACCAGCUGGUGUUCCAUGAGGAUCACCCAUGGAGGUUUGGGUCCCUUGGCAGCAAAUCGCAUACU [SS Theo B #24 Ms16]	33.2	25.2	34	23.2	30.3
GCUAGGUCAUCGGCCGCCACUAACGAUGGCUCCGACAUGAGGAUCACCCAUGUGCCACAUGCGCAUAGGACCGGGAUGACCUAGC [SSTB NP+V+V2 #2]	16.8	–	22.7	19.8	–
